Several values for one entry are separate records, joined by “and”; a condition that tells them apart may be missing. Equal entries are not always repeated.
Target: human vinculin D1D2 (head domain subunits D1D2), wild type (human)
Experiment: native gel or EMSA

Substance: Shigella IpaA-VBS123 (C-terminal region with the three vinculin binding sites), wild type, GST cleaved (domain or fragment)
- stoichiometry N (D1D2 per IpaA-VBS123): 2 and 3
